Assay results as given in publication PMC2864582.
Read-outs that look alike come from different tables or passages of the source.

Legend:
Assay in all cases: fluorescence quenching
hparp486 [1] = biological target: T1, hparp486 (Homo sapiens, UniProt P09874 1-486)
hparp486 [2] = biological target: T1, hparp486; remark: listed apart in the source
hparp486 [3] = biological target: T1, hparp486; remark: listed apart in the source

T1 sequence (P09874 1-486): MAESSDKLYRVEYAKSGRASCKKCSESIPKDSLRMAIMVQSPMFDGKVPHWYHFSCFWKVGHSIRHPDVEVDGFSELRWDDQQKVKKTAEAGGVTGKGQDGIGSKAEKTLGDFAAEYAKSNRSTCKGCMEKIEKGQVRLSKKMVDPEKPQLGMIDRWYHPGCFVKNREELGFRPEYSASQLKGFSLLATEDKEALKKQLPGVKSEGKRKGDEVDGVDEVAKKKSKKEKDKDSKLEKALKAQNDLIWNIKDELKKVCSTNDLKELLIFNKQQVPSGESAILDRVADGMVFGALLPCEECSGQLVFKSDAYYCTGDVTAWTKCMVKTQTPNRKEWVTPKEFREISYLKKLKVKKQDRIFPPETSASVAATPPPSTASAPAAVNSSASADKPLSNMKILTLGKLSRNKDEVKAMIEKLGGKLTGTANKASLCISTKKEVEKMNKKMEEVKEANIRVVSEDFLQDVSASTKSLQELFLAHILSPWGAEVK

B1: 30Blunt (dsDNA)
DNA 1: ATCAGATAGCATCTGTGCGGCCGCTTAGGG
DNA 2: CCCTAAGCGGCCGCACAGATGCTATCTGAT
In the case of B1, the Kd (hparp486 [1]) is reported as 282 nM.

B2: 30Ext (pos. B) (dsDNA)
DNA 1: ATCAGATAGCATCTGTGCGGCCGCTTAGGGTTAGGG
DNA 2: B1 DNA 2
B2 was tested, and the Kd (hparp486 [2]) was 130 nM.

B3: 30Ext (pos. A) (dsDNA)
DNA 1: B2 DNA 1
DNA 2: B1 DNA 2
B3 gave a Kd (hparp486 [3]) of 68 nM.
